The term koff denotes a measure of how fast the partners let go of each other. A lower koff goes with slow dissociation.

The labels stand for the following.
B1: Bacillus thuringiensis insecticidal protein (Bt toxin) Cry2Ab30 (natural protein)
chain: MNSVLNSGRTTICDAYNVAAHDPFSFQHKSLDTVQKEWTEWKKNNHSLYLDPIVGTVASFLLKKVGSLVGKRILSELRNLIFPSGSTNLMQDILRETEKFLNQRLNTDTLARVNAELTGLQANVEEFNRQVDNFLNPNRNAVPLSITSSVNTMQQLFLNRLPQFQMQGYQLLLLPLFAQAANLHLSFIRDVILNADEWGISAATLRTYRDYLKNYTRDYSNYCINTYQSAFKGLNTRLHDMLEFRTYMFLNVFEYVSIWSLFKYQSLLVSSGANLYASGSGPQQTQSFTSQDWPFLYSLFQVNSNYVLNGFSGARLSNTFPNIVGLPGSTTTHALLAARVNYSGGISSGDIGASPFNQNFNCSTFLPPLLTPFVRSWLDSGSDREGVATVTNWQTESFETTLGLRSGAFTARGNSNYFPDYFIRNISGVPLVVRNEDLRRPLHYNEIRNIASPSGTPGGARAYMVSVHNRKNNIHAVHENGSMIHLAPNDYTGFTISPIHATQVNNQTRTFISEKFGNQGDSLRFEQNNTTARYTLRGNGNSYNLYLRVSSIGNSTIRVTINGRVYTATNVNTTTNNDGVNDNGARFSDINIGNVVASSNSDVPLDINVTLNSGTQFDLMNIMLVPTNISPLY
B2: 10th and 11th cadherin repeat domains of the Plutella xylostella cadherin (PxCR10–11), GST-tagged (domain or fragment)
chain: QAVDLKNEGCTADAGDCYSVYYRIVSDISESFKVDAEKNIISLTRELDRADGVRHIVTVAASNQPDATDNPTNVLTVTVFVREANPRPIFENEVYTAGISTMDSINRELFTVKATRTENLSIKYTIDPSSMVADTSLQSVQGSAFELDADSGVLTLKIKPTASMRGMFEFEVIATDTEQATDRAEVKVYIVSDNNRVSFLFQNQLTQVEQYRDFIAQTLSAGFKMACNIDEVIPSTDAGGSPVEGVTEVRAHFIRDNQPVTADVIEALRSDVELLTNIQRTLNTNLLVLTDFVTDISPSVTADAARVIIYLLGALSAALALALACLVLLAAYWFRTRALNRRLEA

The target of assay [1] is B2. Description: BLI. In general terms: BLI is a label-free optical method that tracks binding on a fibre tip over time.
Assay [2] addresses Cry2Ab–AVM bioconjugate (Cry2Ab30 conjugated with 4''-O-succinyl avermectin) (Bacillus thuringiensis, 4''-O-succinyl avermectin joined by an amide bond to amino groups of Cry2Ab30; sites and number not determined (Lys 232 named as potential site from a homology model)). Description: BLI.

In assay [1], B1 had a koff of 0.000567 s⁻¹. As to B2, the koff in assay [2] was determined as 0.000569 s⁻¹.
